{"source": "paper PMC3258384", "about": "(Journal of Molecular Biology, 2011)", "binders": {"B1": {"name": "pCaN peptide, the CaM binding region in the RD of αCaN (peptide)", "peptide": "ARKEVIRNKIRAIGKMARVFSVLR"}}, "target": "Human calmodulin (human, UniProt P0DP23 1-149)", "assay": "circular dichroism"}
{"binder": "B1", "values": [{"measurement": "binding result", "value": "binds"}]}
